T1: SRF (Homo sapiens, UniProt P11831)
T1 sequence (P11831 1-508): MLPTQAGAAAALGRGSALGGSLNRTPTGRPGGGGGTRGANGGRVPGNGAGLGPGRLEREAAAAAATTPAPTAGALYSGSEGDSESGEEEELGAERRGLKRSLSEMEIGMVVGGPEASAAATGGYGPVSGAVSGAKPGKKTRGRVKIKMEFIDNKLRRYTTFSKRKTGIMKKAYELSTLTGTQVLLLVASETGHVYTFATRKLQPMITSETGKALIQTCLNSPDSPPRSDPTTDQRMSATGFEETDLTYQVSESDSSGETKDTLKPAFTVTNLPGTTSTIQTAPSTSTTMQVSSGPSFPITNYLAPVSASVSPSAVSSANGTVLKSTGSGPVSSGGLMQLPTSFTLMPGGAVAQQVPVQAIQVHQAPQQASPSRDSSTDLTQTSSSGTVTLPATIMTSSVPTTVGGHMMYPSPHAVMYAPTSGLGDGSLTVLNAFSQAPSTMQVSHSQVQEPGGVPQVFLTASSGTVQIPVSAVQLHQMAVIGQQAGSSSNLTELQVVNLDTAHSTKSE


Columns and labels:
caspase 3 = assay: Caspase 3 activation in transfected neonatal rat cardiomyocytes (pCaspase3-sensor); format: cell-based; settings: overexpression vs control plasmid
Text: To determine whether ROCK1 activation by caspase 3 cleavage is able to activate the caspase cascade, thereby constituting an amplification loop of apoptotic responses, the present inventors transfected rat neonatal cardiomyocytes with a plasmid encoding a C-terminally truncated mutant (1-1080) of ROCK1 (ROCK1Δ1) that corresponds closely to the fragment generated by caspase 3 cleavage (1-1113), and a second plasmid, pCaspase3-sensor encoding a fluorescent (EYFP) fusion protein (FIG. 9A). […] Caspase 3 activity in the transfected myocytes was monitored by counting the number of transfected cells with nuclear localization of fluorescent fusion protein.
Apoptosis assay and immunofluorescence analysis. Apoptosis was evaluated using caspase 3 activity and poly(ADP-ribose) polymerase (PARP) cleavage with Western blot in human and mouse heart tissues. With regard to apoptotic cultured neonatal cardiomyocytes, a caspase 3 sensor (BD Biosciences) was introduced to detect the onset of caspase 3 activity (FIG. 9). The vector encodes EYFP (enhanced yellow fluorescent protein) fused with NES (nuclear export signal) and NLS (nuclear localization signal). A caspase 3 specific cleavage site is located between EYFP and NES. […] The quantification was performed by counting the number of transfected cells with the nuclear localization of fluorescent fusion protein over the total transfected cells. […]

PTEN = PTEN activity by Malachite green assay in human HEK cells; format: cell-based; settings: transfected HEK cells
Text: (§1) To further characterize the mechanism involved in this caspase activation, the present inventors transfected ROCKΔ1 in human HEK cells. […] Since AKT is activated by PI3K, PTEN acts as the upstream PI3K inhibitor. In specific embodiments of the invention, the repression of AKT activity caused by ROCKΔ1 may contribute to its pro-apoptotic effect through the increase in PTEN activity. […] Meanwhile, the decreased level of pAKT by ROCKΔ1 was reverted by blocking PTEN expression. Furthermore, the pAKT level was higher than the control level (FIG. 22D), which further supported this specific embodiment.
Western blot and Malachite green assay. Anti-ROCK-1, caspase 3, PARP, His, α-actin antibodies (Santa Cruz), anti-phospho-AKTser473 (Cell Signaling) and anti-RTEN (Upstate) were purchased. Protein samples for Western blot were prepared and separated as described earlier (Chang et al., 2000). Even loadings were confirmed by Ponceau staining and antibody probed for actin. PTEN activity was evaluated by Malachite green assay (Upstate). 500 μg of cell lysate protein was used for immunoprecipitation.

phospho-AKT (pAKT) = assay: phospho-AKT level in human HEK cells (Western blot); format: cell-based; settings: transfected HEK cells
Text: as §1
Cell culture, plasmid constructs, and recombinant adenoviruses. Neonatal rat cardiomyocytes were isolated and cultured in DMEM/F12 medium (1:1) with 10% horse serum (DF10); cells were ready for transfection or virus infection 40 hours after plating. For immunostaining, cells were cultured on pre-coated (with 0.2% gelatin) coverslips. Transfections were performed using LipofectAMINE 2000 (Invitrogen) with Opti-MEM I Reduced Serum Medium (Invitrogen). After 6 hr or O/N, cells were cultured in DF10. With human embryonic kidney (HEK) A293T cells, cells were cultured in DMEM with 10% fetal bovine serum. […]
Western blot and Malachite green assay. […] PTEN activity was evaluated by Malachite green assay (Upstate). […]

SRF = target: T1, SRF; assay: SRF cleavage by active caspase 3 in vitro in presence or absence of ROCK1Δ1; format: biochemical; settings: in the presence of active ROCK1
Experimental: Equal amounts of SRF were incubated with active caspase 3 in the presence or absence of ROCK1Δ1.

Molecule	caspase 3 activation (nuclear localization of EYFP fusion protein) (caspase 3)	PTEN activity (PTEN)	phospho-AKT (pAKT) level (phospho-AKT (pAKT))	full-length SRF level after incubation with active caspase 3 (SRF)
full length ROCK1: full length human ROCK-1 expressed from pCAG-ROCK-1 (protein, UniProt Q13464 1-1354, looked up, full-length) MSTGDSFETRFEKMDNLLRDPKSEVNSDCLLDGLDALVYDLDFPALRKNKNIDNFLSRYKDTINKIRDLRMKAEDYEVVKVIGRGAFGEVQLVRHKSTRKVYAMKLLSKFEMIKRSDSAFFWEERDIMAFANSPWVVQLFYAFQDDRYLYMVMEYMPGGDLVNLMSNYDVPEKWARFYTAEVVLALDAIHSMGFIHRDVKPDNMLLDKSGHLKLADFGTCMKMNKEGMVRCDTAVGTPDYISPEVLKSQGGDGYYGRECDWWSVGVFLYEMLVGDTPFYADSLVGTYSKIMNHKNSLTFPDDNDISKEAKNLICAFLTDREVRLGRNGVEEIKRHLFFKNDQWAWETLRDTVAPVVPDLSSDIDTSNFDDLEEDKGEEETFPIPKAFVGNQLPFVGFTYYSNRRYLSSANPNDNRTSSNADKSLQESLQKTIYKLEEQLHNEMQLKDEMEQKCRTSNIKLDKIMKELDEEGNQRRNLESTVSQIEKEKMLLQHRINEYQRKAEQENEKRRNVENEVSTLKDQLEDLKKVSQNSQLANEKLSQLQKQLEEANDLLRTESDTAVRLRKSHTEMSKSISQLESLNRELQERNRILENSKSQTDKDYYQLQAILEAERRDRGHDSEMIGDLQARITSLQEEVKHLKHNLEKVEGERKEAQDMLNHSEKEKNNLEIDLNYKLKSLQQRLEQEVNEHKVTKARLTDKHQSIEEAKSVAMCEMEKKLKEEREAREKAENRVVQIEKQCSMLDVDLKQSQQKLEHLTGNKERMEDEVKNLTLQLEQESNKRLLLQNELKTQAFEADNLKGLEKQMKQEINTLLEAKRLLEFELAQLTKQYRGNEGQMRELQDQLEAEQYFSTLYKTQVKELKEEIEEKNRENLKKIQELQNEKETLATQLDLAETKAESEQLARGLLEEQYFELTQESKKAASRNRQEITDKDHTVSRLEEANSMLTKDIEILRRENEELTEKMKKAEEEYKLEKEEEISNLKAAFEKNINTERTLKTQAVNKLAEIMNRKDFKIDRKKANTQDLRKKEKENRKLQLELNQEREKFNQMVVKHQKELNDMQAQLVEECAHRNELQMQLASKESDIEQLRAKLLDLSDSTSVASFPSADETDGNLPESRIEGWLSVPNRGNIKRYGWKKQYVVVSSKKILFYNDEQDKEQSNPSMVLDIDKLFHVRPVTQGDVYRAETEEIPKIFQILYANEGECRKDVEMEPVQQAEKTNFQNHKGHEFIPTLYHFPANCDACAKPLWHVFKPPPALECRRCHVKCHRDHLDKKEDLICPCKVSYDVTSARDMLLLACSQDEQKKWVTHLVKKIPKNPPSGFVRASPRTLSTRSTANQSFRKVVKNTSGKTS	no significant effect	not found		
ROCK1Δ1: C-terminally truncated mutant (1-1080) of ROCK1, constitutively active, mimics caspase 3 cleaved fragment (protein, UniProt Q13464 1-1080, looked up, fragment) MSTGDSFETRFEKMDNLLRDPKSEVNSDCLLDGLDALVYDLDFPALRKNKNIDNFLSRYKDTINKIRDLRMKAEDYEVVKVIGRGAFGEVQLVRHKSTRKVYAMKLLSKFEMIKRSDSAFFWEERDIMAFANSPWVVQLFYAFQDDRYLYMVMEYMPGGDLVNLMSNYDVPEKWARFYTAEVVLALDAIHSMGFIHRDVKPDNMLLDKSGHLKLADFGTCMKMNKEGMVRCDTAVGTPDYISPEVLKSQGGDGYYGRECDWWSVGVFLYEMLVGDTPFYADSLVGTYSKIMNHKNSLTFPDDNDISKEAKNLICAFLTDREVRLGRNGVEEIKRHLFFKNDQWAWETLRDTVAPVVPDLSSDIDTSNFDDLEEDKGEEETFPIPKAFVGNQLPFVGFTYYSNRRYLSSANPNDNRTSSNADKSLQESLQKTIYKLEEQLHNEMQLKDEMEQKCRTSNIKLDKIMKELDEEGNQRRNLESTVSQIEKEKMLLQHRINEYQRKAEQENEKRRNVENEVSTLKDQLEDLKKVSQNSQLANEKLSQLQKQLEEANDLLRTESDTAVRLRKSHTEMSKSISQLESLNRELQERNRILENSKSQTDKDYYQLQAILEAERRDRGHDSEMIGDLQARITSLQEEVKHLKHNLEKVEGERKEAQDMLNHSEKEKNNLEIDLNYKLKSLQQRLEQEVNEHKVTKARLTDKHQSIEEAKSVAMCEMEKKLKEEREAREKAENRVVQIEKQCSMLDVDLKQSQQKLEHLTGNKERMEDEVKNLTLQLEQESNKRLLLQNELKTQAFEADNLKGLEKQMKQEINTLLEAKRLLEFELAQLTKQYRGNEGQMRELQDQLEAEQYFSTLYKTQVKELKEEIEEKNRENLKKIQELQNEKETLATQLDLAETKAESEQLARGLLEEQYFELTQESKKAASRNRQEITDKDHTVSRLEEANSMLTKDIEILRRENEELTEKMKKAEEEYKLEKEEEISNLKAAFEKNINTERTLKTQAVNKLAEIMNRKDFKIDRKKANTQDLRKKEKENRKLQLELNQEREKFNQMVVKHQKELNDMQAQLVEECAHRNELQMQL	induced significant caspase 3 activation	increased	decreased	markedly decreased
